According to US20230201439A1:

Key:
[1] = molecular target: Nucleosomes (cfDNA measured by Nu.Q H3.1 assay) in porcine liver perfusion solution (porcine); assay: batch depletion: porcine liver perfusate with 10% v/v antibody-agarose matrix, 60 min, 37 C; what is left is measured by Nu.Q H3.1 assay; sample 2, before incubation 73536 ng/ml
[2] = molecular target: Nucleosomes (cfDNA measured by Nu.Q H3.1 assay) in porcine liver perfusion solution (porcine); assay: batch depletion: porcine liver perfusate with 10% v/v antibody-agarose matrix, 60 min, 37 C; what is left is measured by Nu.Q H3.1 assay; sample 3, before incubation 87643 ng/ml
[3] = molecular target: Nucleosomes (cfDNA measured by Nu.Q H3.1 assay) in porcine liver perfusion solution (porcine); assay: batch depletion: porcine liver perfusate with 10% v/v antibody-agarose matrix, 60 min, 37 C; what is left is measured by Nu.Q H3.1 assay; sample 1, before incubation 92466 ng/ml

cfDNA quantity in perfusate after incubation with the matrix (Nu.Q H3 Assay) [1]: 24300 ng/mL
cfDNA quantity in perfusate after incubation with the matrix (Nu.Q H3 Assay) [2]: 29800 ng/mL
cfDNA quantity in perfusate after incubation with the matrix (Nu.Q H3 Assay) [3]: 38800 ng/mL
Substance: Antibody against histone H3.1 (Merck Millipore MABE952), coupled to NHS-activated Sepharose 4 Fast Flow
